Results from US8748182B2, “Mutant proteins and methods for producing them” (Heptares Therapeutics Limited, priority 2007, dated 2014).
Values joined by “and” are separate entries in the source; they are usually repeats but may differ in a detail not shown here. Equal values may be shown once. Where a name gives a salt, the structure may show the parent alone. Read-outs that look alike come from different tables or passages of the source.

Tests used:
[1] = Thermostability of solubilised adenosine A2a receptor and mutants (radioligand binding after or during heating); assay type: physicochemical
Text: FIG. 12 Flow chart showing the two different assay formats of ligand (+) and ligand (−) used to determine receptor thermostablity.
• 1. 315 site-directed mutants made between residues 2-316 of A2aR. • 2. All of these mutants have been assayed for thermostability using an assay measuring agonist and antagonist binding after the heating step (Ligand(−) format as described in FIG. 12). • a. […] Mutations have been combined to generate mutants in a putative antagonist conformation. Wildtype A2aR has a Tm of 31° C. with ZM241385 bound. • a. Rant17 A54L+K122A+L235A Tm 48° C. (ZM241385 bound) • b. Rant19 A54L,T88A,V239A+A204L Tm 47° C. (ZM241385 bound) • c. Rant21 A54L,T88A,V239A+K122A Tm 49° C. (ZM241385 bound) • 4. Mutations from the agonist screen have been combined, but have led to only a very low level of improvement in Tm of +2° C.

[2] = Stability of wild-type and mutant A2aR in different detergents; assay type: physicochemical
βAR-m23 [3] = target: T1, βAR-m23 (Meleagris gallopavo, UniProt P07700, A282L/C116L/F327A/F338M/M90V/R68S/Y227A); test: biochemical; assay type: binding, turkey
T1 sequence (P07700 34-424 R68S/M90V/C116L/Y227A/A282L/F327A/F338M): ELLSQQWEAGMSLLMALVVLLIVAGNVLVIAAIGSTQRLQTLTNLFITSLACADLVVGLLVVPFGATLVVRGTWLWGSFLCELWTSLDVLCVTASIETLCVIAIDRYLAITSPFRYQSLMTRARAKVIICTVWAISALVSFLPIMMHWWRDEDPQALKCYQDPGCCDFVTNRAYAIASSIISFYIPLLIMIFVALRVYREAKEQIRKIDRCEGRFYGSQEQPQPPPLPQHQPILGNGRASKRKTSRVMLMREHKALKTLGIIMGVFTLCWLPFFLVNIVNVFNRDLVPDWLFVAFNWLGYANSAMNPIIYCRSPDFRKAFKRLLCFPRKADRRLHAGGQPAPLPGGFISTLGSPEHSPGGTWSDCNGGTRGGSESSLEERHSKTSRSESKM

[4] = Thermostability assay of detergent-solubilised βAR34-424 and mutants expressed in E. coli ([3H]-DHA binding after heating 30 min); conditions: for Tm (° C.): heated 30 min without ligand, then [3H]-DHA binding, E. coli, mean ± S.E. from duplicates; for Tm (° C.) / increase in Tm compared to βAR34-424 (native protein): DDM-solubilised; for increase in Tm compared to βAR34-424 (native protein): heated without ligand; for further increase in Tm on adding one mutation to the preceding mutant: m4-1 to m4-7 to m4-2, m18 to m23
Procedure: To determine Tm in the absence of ligand (apo-state, discontinuous lines), detergent-solubilised receptors were incubated for 30 minutes at the temperatures indicated before carrying out the binding assay. […] Data points are from duplicates measurements in a representative experiment.
Binding assays were performed using [^3H]-dihydroalprenolol (DHA) as radioligand as described under “Methods”. Samples were heated for 30 minutes at different temperatures before the assay. […] Data points are from duplicates of one single experiment. This experiment has been repeated several times with similar results.
Expression of βAR and the mutants was performed in XL10 cells (Stratagene). Cultures of 50 ml of 2×TY medium containing ampicillin (100 μg/ml) were grown at 37° C. with shaking until OD600=3 and then induced with 0.4 mM IPTG. Induced cultures were incubated at 25° C. for 4 h and then cells were harvested by centrifugation at 13,000×g for 1 min (aliquots of 2 ml) and stored at −20° C. For the assays, cells were broken by freeze-thaw (five cycles), resuspended in 500 μl of buffer [20 mM Tris pH 8, 0.4 M NaCl, 1 mM EDTA and protease inhibitors (Complete™, Roche)]. After an incubation for 1 h at 4° C. with 100 μg/ml lysozyme and DNase I (Sigma), samples were solubilized with 2% DDM on ice for 30 minutes. Insoluble material was removed by centrifugation (15,000×g, 2 min, 4° C.) and the supernatant was used directly in radioligand binding assays.
Single point binding assays contained 20 mM Tris pH 8, 0.4 M NaCl, 1 mM EDTA, 0.1% DDM (or corresponding detergent) with 50 nM [^3H]-DHA and 20-100 μg membrane protein in a final volume of 120 μl; equilibration was for 1 h at 4° C. Thermostability was assessed by incubating the binding assay mix, with or without [^3H]-DHA at the specified temperature for 30 minutes; reactions were placed on ice and [^3H]-DHA added as necessary and equilibrated for a further hour. […] Radioactivity was counted on a Beckman LS6000 liquid scintillation counter and data were analyzed by nonlinear regression using Prism software (GraphPad).

βAR-m23 [5] = target: T1, βAR-m23; assay type: binding, turkey
[6] = Stability of βAR-m23 and βAR34-424 in different detergents (Ni-NTA partially purified); assay type: physicochemical
Procedure: FIGS. 6A-6C Stability of βAR-m23 and βAR34-424 in five different detergents. […] Assays were carried out as described in the Methods and the Tm is shown at the intersection between the curves and the discontinuous line. Results are from duplicate measurements in a representative experiment performed in parallel.
Membranes prepared from E. coli expressing βAR-m23 or βAR34-424 were solubilised in DDM, bound to Ni-NTA agarose then washed with either DDM, decylmaltoside (DM), octylglucoside (OG), lauryldimethylamine oxide (LDAO) or nonylglucoside (NG). […] In contrast, functional βAR-m23 was still present in all detergents and the Tm could be determined. As expected, the smaller detergents were considerably more denaturing than either DDM (Tm 52° C.) or DM (Tm 48° C.), with Tms of 25° C. (NG), 23° C. (LDAO) and 17° C. (OG). The difference in Tm between βAR-m23 and βAR34-424 is about 20° C., irrespective of whether the receptors were solubilised in either DDM or DM; […] . The selection strategy used for the generation of βAR-m23 was chosen deliberately to be based upon thermostability, because it is far simpler to apply than selecting for stability in detergents of increasing harshness.
Receptors were eluted in 2×100 μl of buffer (0.4 M NaCl, 1 mM EDTA, 250 mM imidazole pH 8, plus the relevant detergent). […] .
Single point binding assays contained 20 mM Tris pH 8, 0.4 M NaCl, 1 mM EDTA, 0.1% DDM (or corresponding detergent) with 50 nM [^3H]-DHA and 20-100 μg membrane protein in a final volume of 120 μl; equilibration was for 1 h at 4° C. Thermostability was assessed by incubating the binding assay mix, with or without [^3H]-DHA at the specified temperature for 30 minutes; reactions were placed on ice and [^3H]-DHA added as necessary and equilibrated for a further hour. Receptor-bound and free radioligand were separated by gel filtration as described previously. Non-specific binding was determined in the presence of 1 μM of s-propranolol. […] Radioactivity was counted on a Beckman LS6000 liquid scintillation counter and data were analyzed by nonlinear regression using Prism software (GraphPad).

[7] = 1% DDM (no glycerol), apo-state, S.D. <1° C.
[8] = 1% DDM (no glycerol), ligand-occupied state, S.D. <1° C.
[9] = 0.3% NG, † = receptor too unstable to determine the Tm
[10] = 0.6% OG, † = receptor too unstable to determine the Tm
[11] = [3H]-DHA bound during the heating step

Molecule: wt: wild-type human adenosine A2a receptor (A2aR)
- Tm (° C.) − agonist [1, 7]: 21 °C
- Tm (° C.) − antagonist [1, 7]: 31 °C
- Tm (° C.) + agonist [1, 8]: 29 °C
- Tm (° C.) + antagonist [1, 8]: 32 °C
- Tm (ZM241385 bound) [1]: 31 °C
- Tm (° C.) Agonist-binding ([2]; 0.003% LDAO): 28 °C
- Tm (° C.) Antagonist-binding ([2]; 0.003% LDAO): 32 °C
- Tm (° C.) Agonist-binding ([2]; 0.006% FC12): 37 °C
- Tm (° C.) Antagonist-binding ([2]; 0.006% FC12): 43 °C
- Tm (° C.) Agonist-binding ([2]; 0.01% DDM): 27 °C
- Tm (° C.) Antagonist-binding ([2]; 0.01% DDM): 25 °C
- Tm (° C.) Agonist-binding ([2]; 0.1% DM): 23 °C
- Tm (° C.) Antagonist-binding ([2]; 0.1% DM): 10 °C
- Tm (° C.) Agonist-binding [2, 9]: †
- Tm (° C.) Antagonist-binding [2, 9]: †
- Tm (° C.) Agonist-binding ([2]; 0.3% NM): 22 °C
- Tm (° C.) Antagonist-binding ([2]; 0.3% NM): <4 °C
- Tm (° C.) Agonist-binding ([2]; 0.6% OG): <9 °C
- Tm (° C.) Antagonist-binding [2, 10]: †

Molecule: C=CCc1ccccc1OC[C@@H](O)CNC(C)C [alprenolol, (−) alprenolol tartrate salt]
- EC50 (βAR-m23 [3]): 112 nM

Molecule: m17: βAR34-424 with R68S, M90V, Y227A, V230A, F327A, A334L
- Tm (° C.) ([4]; Table 2): 48.2 ± 1.4 °C

Molecule: m7-5: βAR34-424 with M90V, Y227A
- increase in Tm compared to βAR34-424 (native protein) [4]: 13 °C
- Tm (° C.) ([4]; Table 1): 45.2 ± 1.0 °C

Molecule: m7-1: βAR34-424 with M90V, A282L, F338M
- Tm (° C.) ([4]; Table 1): 43.0 ± 0.8 °C

Molecule: m10-8: βAR34-424 with R68S, M90V, V230A, F327A, A334L
- Tm (° C.) ([4]; Table 1): 47.3 ± 1.4 °C

Molecule: m6-10: βAR34-424 with R68S, Y227A, A282L, A334L
- Tm (° C.) ([4]; Table 1): 47.4 ± 1.1 °C

Molecule: M90A: βAR34-424 point mutant M90A
- increase in Tm compared to βAR34-424 (native protein) [4]: 8 °C

Molecule: m6-9: βAR34-424 with R68S, Y227A, A234L, A282L, A334L
- Tm (° C.) ([4]; Table 1): 43.7 ± 0.4 °C

Molecule: m6-5: βAR34-424 with R68S, A234L, A282L, A334L
- Tm (° C.) ([4]; Table 1): 41.9 ± 0.5 °C

Molecule: 1-[4,6-propyl-^3H]-dihydroalprenolol [[^3H]-dihydroalprenolol]
- Kd (βAR-m23 [5]; membranes, n=2, read-out: KD of [3H]-dihydroalprenolol): 6.5 ± 0.2 nM
- Kd (βAR-m23 [5]; semipurified receptor, read-out: KD for [3H]-DHA binding): 12.5 nM

Molecule: m23: βAR34-424 with R68S, M90V, Y227A, A282L, F327A, F338M
- Tm in DDM ([6]; DDM): 52 °C
- Tm in DM ([6]; DM (decylmaltoside)): 48 °C
- Tm in LDAO ([6]; LDAO): 23 °C
- Tm in NG ([6]; NG (nonylglucoside)): 25 °C
- Tm in OG ([6]; OG (octylglucoside)): 17 °C
- difference in Tm between βAR-m23 and βAR34-424 ([6]; solubilised in either DDM or DM): about 20 °C
- increase in Tm compared to βAR34-424 (native protein) [4]: 21 °C
- Tm (° C.) ([4]; Table 2): 52.8 °C and 52.8 ± 1.4 °C
- Tm with antagonist bound [4, 11]: 55 °C
- increase in Tm with bound antagonist versus without antagonist [4, 11]: 2 °C
- further increase in Tm on adding one mutation to the preceding mutant [4]: 3 °C

Molecule: m4-7: βAR34-424 with G67A, G98A, V230A
- Tm (° C.) ([4]; Table 1): 38.0 ± 1.2 °C
- further increase in Tm on adding one mutation to the preceding mutant [4]: 2 °C

Molecule: m7-7: βAR34-424 with M90V, Y227A, F338M
- Tm (° C.) ([4]; Table 1): 45.2 ± 2.0 °C

Molecule: m19: βAR34-424 with R68S, M90V, Y227A, A282L, F327A, F338M as printed (same as m23)
- Tm (° C.) ([4]; Table 2): 49.0 ± 0.8 °C

Molecule: m21: βAR34-424 with R68S, M90V, Y227A, F327A, A334L
- Tm (° C.) ([4]; Table 2): 47.0 ± 1.3 °C

Molecule: m7-6: βAR34-424 with M90V, I129V
- Tm (° C.) ([4]; Table 1): 40.0 ± 0.6 °C

Molecule: m6-11: βAR34-424 with R68S, A282L, A334L
- Tm (° C.) ([4]; Table 1): 39.1 ± 0.5 °C

Molecule: Y227A: βAR34-424 point mutant Y227A
- increase in Tm compared to βAR34-424 (native protein) [4]: 8 °C

Molecule: m7-2: βAR34-424 with M90V, A282L
- Tm (° C.) ([4]; Table 1): 38.9 ± 0.6 °C

Molecule: m6-4: βAR34-424 with R68S, Y227A, A234L, A282L
- Tm (° C.) ([4]; Table 1): 41.6 ± 0.1 °C

Molecule: m20: βAR34-424 with R68S, M90V, F327A, A334L
- Tm (° C.) ([4]; Table 2): 48.4 ± 0.7 °C

B1: Rant 21: A2aR with A54L, T88A, V239A+K122A (protein, UniProt P29274 1-412, looked up, variant A54L T88A V239A K122A)
Adenosine receptor A2a: MPIMGSSVYITVELAIAVLAILGNVLVCWAVWLNSNLQNVTNYFVVSLAAADILVGVLAIPFAITISTGFCAACHGCLFIACFVLVLAQSSIFSLLAIAIDRYIAIRIPLRYNGLVTGTRAAGIIAICWVLSFAIGLTPMLGWNNCGQPKEGKNHSQGCGEGQVACLFEDVVPMNYMVYFNFFACVLVPLLLMLGVYLRIFLAARRQLKQMESQPLPGERARSTLQKEVHAAKSLAIIAGLFALCWLPLHIINCFTFFCPDCSHAPLWLMYLAIVLSHTNSVVNPFIYAYRIREFRQTFRKIIRSHVLRQQEPFKAAGTSARVLAAHGSDGEQVSLRLNGHPPGVWANGSAPHPERRPNGYALGLVSGGSAQESQGNTGLPDVELLSHELKGVCPEPPGLDDPLAQDGAGVS
- Tm (° C.) − antagonist [1, 7]: 41 °C
- Tm (° C.) + antagonist [1, 8]: 49 °C
- Tm (ZM241385 bound) [1]: 49 °C
- Tm (° C.) Antagonist-binding ([2]; 0.003% LDAO): 42 °C
- Tm (° C.) Antagonist-binding ([2]; 0.006% FC12): 49 °C
- Tm (° C.) Antagonist-binding ([2]; 0.01% DDM): 39 °C
- Tm (° C.) Antagonist-binding ([2]; 0.1% DM): 28 °C
- Tm (° C.) Antagonist-binding [2, 9]: 22 °C
- Tm (° C.) Antagonist-binding ([2]; 0.3% NM): 25 °C
- Tm (° C.) Antagonist-binding [2, 10]: 23 °C
